Patent publication US5906819, “Rho target protein Rho-kinase” (Kirin Beer Kabushiki Kaisha, dated 1999)

Key:
GST = GST (Schistosoma japonicum (Blood fluke), UniProt P08515 = GST); test: GST-small G-protein glutathione-Sepharose affinity column, SDS-PAGE and silver staining
Experimental: The GST-small G-proteins (24 nmol each) were immobilized on 1 ml glutathione-Sepharose column 4B and loaded on the column.
The proteins of the bovine brain membrane extract were eluted through a 1 ml glutathione-Sepharose column. The pass-through fraction was loaded onto a glutathione-Sepharose column containing 24 nmol of GST, GDP•GST-RhoA or GTPγS•GST-RhoA. […] The proteins bound to the glutathione-Sepharose column were eluted by addition of 10 ml Buffer A containing glutathione or 1% 3-[(3-cholamidopropyl) dimethylammonio] propanesulfonic acid (CHAPS), and fractions of 1 ml each were collected.

GTPγS·GST-H-Ras = GTPγS·GST-H-Ras (Homo sapiens (Human), UniProt P01112); test: GST-small G-protein glutathione-Sepharose affinity column
GTPγS·GST-Rac1 = GTPγS·GST-Rac1 (Homo sapiens (Human), UniProt P63000); test: as above

B1: bovine Rho-kinase (enzyme)
chain: MSRPPPTGKMPGAPEAVSGDGAGASRQRKLEALIRDPRSPINVESLLDGLNPLVLDLDFPALRKNKNIDNFLNRYEKIVKKIRGLQMKAEDYDVVKVIGRGAFGEVQLVRHKASQKVYAMKLLSKFEMIKRSDSAFFWEERDIMAFANSPWVVQLFCAFQDDKYLYMVMEYMPGGDLVNLMSNYDVPEKWAKFYTAEVVLALDAIHSMGLIHRDVKPDNMLLDKHGHLKLADFGTCMKMDETGMVHCDTAVGTPDYISPEVLKSQGGDGYYGRECDWWSVGVFLFEMLVGDTPFYADSLVGTYSKIMDHKNSLCFPEDAEISKHAKNLICAFLTDREVRLGRNGVEEIKQHPFFKNDQWNWDNIRETAAPVVPELSSDIDSSNFDDIEDDKGDVETFPIPKAFVGNQLPFIGFTYYRENLLLSDSPSCKENDSIQSRKNEESQEIQKKLYTLEEHLSTEIQAKEELEQKCKSVNTRLEKVAKELEEEITLRKNVESTLRQLEREKALLQHKNAEYQRKADHEADKKRNLENDVNSLKDQLEDLKKRNQNSQISTEKVNQLQRQLDETNALLRTESDTAARLRKTQAESSKQIQQLESNNRDLQDKNCLLETAKLKLEKEFINLQSVLESERRDRTHGSEIINDLQGRISGLEEDVKNGKILLAKVELEKRQLQERFTDLEKEKNNMEIDMTYQLKVIQQSLEQEETEHKATKARLADKNKIYESIEEAKSEAMKEMEKKLSEERTLKQKVENLLLEAEKRCSILDCDLKQSQQKINELLKQKDVLNEDVRNLTLKIEQETQKRCLTQNDLKMQTQQVNTLKMSEKQLKQENNHLLEMKMSLEKQNAELRKERQDADGQMKELQDQLEAEQYFSTLYKTQVRELKEECEEKTKLCKELQQKKQELQDERDSLAAQLEITLTKADSEQLARSIAEEQYSDLEKEKIMKELEIKEMMARHKQELTEKDATIASLEETNRTLTSDVANLANEKEELNNKLKEAQEQLSRLKDEEISAAAIKAQFEKQLLTERTLKTQAVNKLAEIMNRKEPVKRGNDTDVRRKEKENRKLHMELKSEREKLTQQMIKYQKELNEMQAQIAEESQIRIELQMTLDSKDSDIEQLRSQLQALHIGLDSSSIGSGPGDTEADDGFPESRLEGWLSLPVRNNTKKFGWVKKYVIVSSKKILFYDSEQDKEQSNPYMVLDIDKLFHVRPVTQTDVYRADAKEIPRIFQILYANEGESKKEQEFPVEPVGEKSNYICHKGHEFIPTLYHFPTNCEACMKPLWHMFKPPPALECRRCHIKCHKDHMDKKEEIIAPCKVYYDISSAKNLLLLANSTEEQQKWVSRLVKKIPKKPPAPDPFARSSPRTSMKIQQNQSIRRPSRQLAPNKPS
- binding result (GST): no binding (tested: 24 nmol on the column)
- binding result (GTPγS·GST-H-Ras): no binding
- binding result (GTPγS·GST-Rac1): no binding
